Experimental data: patent US20240199746A1 (published 2024)

T1: Ax1 protein, extracellular domain (human, UniProt P30530 26-451)
T1 construct: extracellular domain; also called Axl; Ark
T1 sequence (looked up): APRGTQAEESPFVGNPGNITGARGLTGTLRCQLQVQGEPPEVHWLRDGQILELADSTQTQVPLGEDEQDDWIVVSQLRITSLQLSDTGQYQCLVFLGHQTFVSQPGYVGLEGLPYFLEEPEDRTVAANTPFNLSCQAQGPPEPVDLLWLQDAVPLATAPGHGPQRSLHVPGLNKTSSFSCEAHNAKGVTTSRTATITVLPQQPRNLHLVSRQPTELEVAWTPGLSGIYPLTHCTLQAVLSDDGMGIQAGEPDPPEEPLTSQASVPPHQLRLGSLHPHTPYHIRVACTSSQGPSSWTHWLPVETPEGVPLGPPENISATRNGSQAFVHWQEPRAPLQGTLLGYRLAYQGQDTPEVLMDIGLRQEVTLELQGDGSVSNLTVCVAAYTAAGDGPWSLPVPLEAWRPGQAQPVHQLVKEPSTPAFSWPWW


What was measured:
[1] = biological target: T1, Ax1 protein, extracellular domain; test: ELISA, mutant diluted 1:3
Text: (§1) The DNA encoding the wild-type antibody was evolved to generate a mutant antibody library using Comprehensive Positional Evolution (CPE), which each position in the template antibody is randomized one at a time. Each mutant antibody in the library has only one single point mutation. The mutant antibodies in the library were generated by simultaneously screening for selective binding affinity to Ax1 at pH 6.0 over pH 7.4 by ELISA. Two mutant antibody dilutions were used: 1:3 and 1:9 dilutions.

[2] = biological target: T1, Ax1 protein, extracellular domain; test: ELISA, mutant diluted 1:9
Text: as §1

| Affinity ELISA CPE mutant ratio (1:3, pH 6.0/7.4) [1] | Affinity ELISA CPE mutant ratio (1:9, pH 6.0/7.4) [2] | Binder |
| --- | --- | --- |
| 2.5 | 2.09 | LC-P095T (antibody, V domains shown, CPE single point mutant) VH: EVQLVQSGAEVKKPGATVKISCKVSGYSFTGHTMNWIRQPPGKGLEWIGLIKPSNGGTSYNQKFKGRVTISADKSISTAYLQWSSLKASDTAMYYCAHGHYESYFAMDYWGQGTLVTVSS VL: DIQMTQSPSSLSASVGDRVTITCKASQDVSSAVAWYQQKPGQAPRLLIYWASTRHTGVPSRFSGSGSGTEFTLTISSLQPDDFATYYCQEHFSTTLTFGQGTKVEIK |
| 1.87 | 2.13 | LC-P095V (antibody, V domains shown, CPE single point mutant) VH: EVQLVQSGAEVKKPGATVKISCKVSGYSFTGHTMNWIRQPPGKGLEWIGLIKPSNGGTSYNQKFKGRVTISADKSISTAYLQWSSLKASDTAMYYCAHGHYESYFAMDYWGQGTLVTVSS VL: DIQMTQSPSSLSASVGDRVTITCKASQDVSSAVAWYQQKPGQAPRLLIYWASTRHTGVPSRFSGSGSGTEFTLTISSLQPDDFATYYCQEHFSTVLTFGQGTKVEIK |
| 2.25 | 3.5 | LC-W050F (antibody, V domains shown, CPE single point mutant) VH: EVQLVQSGAEVKKPGATVKISCKVSGYSFTGHTMNWIRQPPGKGLEWIGLIKPSNGGTSYNQKFKGRVTISADKSISTAYLQWSSLKASDTAMYYCAHGHYESYFAMDYWGQGTLVTVSS VL: DIQMTQSPSSLSASVGDRVTITCKASQDVSSAVAWYQQKPGQAPRLLIYFASTRHTGVPSRFSGSGSGTEFTLTISSLQPDDFATYYCQEHFSTPLTFGQGTKVEIK |
| 1.94 | 1.8 | LC-V029G (antibody, V domains shown, CPE single point mutant) VH: EVQLVQSGAEVKKPGATVKISCKVSGYSFTGHTMNWIRQPPGKGLEWIGLIKPSNGGTSYNQKFKGRVTISADKSISTAYLQWSSLKASDTAMYYCAHGHYESYFAMDYWGQGTLVTVSS VL: DIQMTQSPSSLSASVGDRVTITCKASQDGSSAVAWYQQKPGQAPRLLIYWASTRHTGVPSRFSGSGSGTEFTLTISSLQPDDFATYYCQEHFSTPLTFGQGTKVEIK |
| 3.09 | 4.05 | LC-T097I (antibody, V domains shown, CPE single point mutant) VH: EVQLVQSGAEVKKPGATVKISCKVSGYSFTGHTMNWIRQPPGKGLEWIGLIKPSNGGTSYNQKFKGRVTISADKSISTAYLQWSSLKASDTAMYYCAHGHYESYFAMDYWGQGTLVTVSS VL: DIQMTQSPSSLSASVGDRVTITCKASQDVSSAVAWYQQKPGQAPRLLIYWASTRHTGVPSRFSGSGSGTEFTLTISSLQPDDFATYYCQEHFSTPLIFGQGTKVEIK |
| 2.15 | 2.26 | LC-P095W (antibody, V domains shown, CPE single point mutant) VH: EVQLVQSGAEVKKPGATVKISCKVSGYSFTGHTMNWIRQPPGKGLEWIGLIKPSNGGTSYNQKFKGRVTISADKSISTAYLQWSSLKASDTAMYYCAHGHYESYFAMDYWGQGTLVTVSS VL: DIQMTQSPSSLSASVGDRVTITCKASQDVSSAVAWYQQKPGQAPRLLIYWASTRHTGVPSRFSGSGSGTEFTLTISSLQPDDFATYYCQEHFSTWLTFGQGTKVEIK |
| 2.31 | 2.35 | LC-V029W (antibody, V domains shown, CPE single point mutant) VH: EVQLVQSGAEVKKPGATVKISCKVSGYSFTGHTMNWIRQPPGKGLEWIGLIKPSNGGTSYNQKFKGRVTISADKSISTAYLQWSSLKASDTAMYYCAHGHYESYFAMDYWGQGTLVTVSS VL: DIQMTQSPSSLSASVGDRVTITCKASQDWSSAVAWYQQKPGQAPRLLIYWASTRHTGVPSRFSGSGSGTEFTLTISSLQPDDFATYYCQEHFSTPLTFGQGTKVEIK |
| 2.6 | 2.65 | LC-V029N (antibody, V domains shown, CPE single point mutant) VH: EVQLVQSGAEVKKPGATVKISCKVSGYSFTGHTMNWIRQPPGKGLEWIGLIKPSNGGTSYNQKFKGRVTISADKSISTAYLQWSSLKASDTAMYYCAHGHYESYFAMDYWGQGTLVTVSS VL: DIQMTQSPSSLSASVGDRVTITCKASQDNSSAVAWYQQKPGQAPRLLIYWASTRHTGVPSRFSGSGSGTEFTLTISSLQPDDFATYYCQEHFSTPLTFGQGTKVEIK |
| 2.88 | 2.68 | LC-V029D (antibody, V domains shown, CPE single point mutant) VH: EVQLVQSGAEVKKPGATVKISCKVSGYSFTGHTMNWIRQPPGKGLEWIGLIKPSNGGTSYNQKFKGRVTISADKSISTAYLQWSSLKASDTAMYYCAHGHYESYFAMDYWGQGTLVTVSS VL: DIQMTQSPSSLSASVGDRVTITCKASQDDSSAVAWYQQKPGQAPRLLIYWASTRHTGVPSRFSGSGSGTEFTLTISSLQPDDFATYYCQEHFSTPLTFGQGTKVEIK |
